Measurements published in US20200247855A1 (published 2020).
Positions count from the first letter of the chain named. Like-named read-outs stand apart in the source and are kept apart here.

Tests used:
[1] = target: T1, CCL19_HUMAN (human, UniProt Q99731 22-98); experiment: BLI
T1 chain: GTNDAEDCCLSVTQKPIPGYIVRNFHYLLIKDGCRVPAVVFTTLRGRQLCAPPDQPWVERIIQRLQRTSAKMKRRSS

[2] = target: T2, CCL17_HUMAN (human, UniProt Q92583 24-94); experiment: BLI
T2 chain: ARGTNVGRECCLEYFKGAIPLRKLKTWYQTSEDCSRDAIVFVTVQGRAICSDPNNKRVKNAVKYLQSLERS

[3] = target: T3, CCL3_HUMAN (human, UniProt P10147 24-92); experiment: BLI
T3 chain: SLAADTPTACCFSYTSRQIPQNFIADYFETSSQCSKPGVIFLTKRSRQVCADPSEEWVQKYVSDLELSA

[4] = target: T4, CCL22_HUMAN (human, UniProt O00626 25-93); experiment: BLI
T4 chain: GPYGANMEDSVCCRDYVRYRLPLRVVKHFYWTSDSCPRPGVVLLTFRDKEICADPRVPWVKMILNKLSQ

[5] = target: CCL11_HUMAN (human, UniProt P51671 24-97); experiment: BLI
[6] = target: T5, CCL18_HUMAN (human, UniProt P55774 21-89); experiment: BLI
T5 chain: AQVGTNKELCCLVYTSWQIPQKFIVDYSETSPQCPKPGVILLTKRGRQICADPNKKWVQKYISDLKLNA

[7] = target: T6, CCL23_HUMAN (human, UniProt P55773 22-120); experiment: BLI
T6 chain: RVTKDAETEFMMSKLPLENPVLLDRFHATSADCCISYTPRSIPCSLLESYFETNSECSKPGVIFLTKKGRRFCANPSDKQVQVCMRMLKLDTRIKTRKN

[8] = target: CCL2_HUMAN (human, UniProt P13500 24-99); experiment: BLI
[9] = target: CCL20_HUMAN (human, UniProt P78556 27-96); experiment: BLI
[10] = target: T7, CCL1_HUMAN (human, UniProt P22362 24-96); experiment: BLI
T7 chain: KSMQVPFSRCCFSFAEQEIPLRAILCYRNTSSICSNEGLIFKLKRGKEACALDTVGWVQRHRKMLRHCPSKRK

[11] = target: T8, CCL14_HUMAN (human, UniProt Q16627 22-93); experiment: BLI
T8 chain: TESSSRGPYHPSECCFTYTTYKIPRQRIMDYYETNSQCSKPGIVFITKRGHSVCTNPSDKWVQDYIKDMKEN

[12] = target: CCL13_HUMAN (human, UniProt Q99616 24-98); experiment: BLI
[13] = target: T9, CCL24_HUMAN (human, UniProt O00175 27-104); experiment: BLI
T9 chain: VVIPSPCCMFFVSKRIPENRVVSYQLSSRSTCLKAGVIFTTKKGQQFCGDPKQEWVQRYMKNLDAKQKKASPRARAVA

[14] = target: T10, CCL15_HUMAN (human, UniProt Q16663 22-113); experiment: BLI
T10 chain: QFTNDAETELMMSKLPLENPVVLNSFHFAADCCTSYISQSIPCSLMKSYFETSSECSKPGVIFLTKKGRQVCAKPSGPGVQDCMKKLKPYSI

[15] = target: CCL7_HUMAN (human, UniProt P80098 24-99); experiment: BLI
[16] = target: T11, CCL4L1_HUMAN (human, UniProt Q8NHW4 24-92); experiment: BLI
T11 chain: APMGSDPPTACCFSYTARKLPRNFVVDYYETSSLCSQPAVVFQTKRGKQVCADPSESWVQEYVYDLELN

[17] = target: T12, CCL5_HUMAN (human, UniProt P13501 24-91); experiment: BLI
T12 chain: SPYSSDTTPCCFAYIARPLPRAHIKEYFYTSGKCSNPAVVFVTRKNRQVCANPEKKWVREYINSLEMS

[18] = target: T13, CCL8_HUMAN (human, UniProt P80075 24-99); experiment: BLI
T13 chain: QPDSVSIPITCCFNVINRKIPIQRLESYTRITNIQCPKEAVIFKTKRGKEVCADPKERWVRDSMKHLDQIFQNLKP

[19] = target: T14, CCL16_HUMAN (human, UniProt O15467 24-120); experiment: BLI
T14 chain: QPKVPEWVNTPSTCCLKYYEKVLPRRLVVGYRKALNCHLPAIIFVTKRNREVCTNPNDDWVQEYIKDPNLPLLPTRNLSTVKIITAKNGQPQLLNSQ

[20] = target: T15, CCL3L1_HUMAN (human, UniProt P16619 24-93); experiment: BLI
T15 chain: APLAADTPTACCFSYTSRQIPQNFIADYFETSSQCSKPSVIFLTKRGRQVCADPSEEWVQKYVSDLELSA

[21] = target: T16, CCL21_HUMAN (human, UniProt O00585 24-134); experiment: BLI
T16 chain: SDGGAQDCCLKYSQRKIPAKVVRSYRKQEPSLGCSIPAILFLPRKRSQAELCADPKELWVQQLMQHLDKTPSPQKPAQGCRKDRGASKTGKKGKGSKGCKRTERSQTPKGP

[22] = target: T17, CCL4_HUMAN (human, UniProt P13236 24-92); experiment: BLI
T17 chain: T11 chain with G47S

[23] = target: T18, CXCL3_HUMAN (human, UniProt P19876 35-107); experiment: BLI; previously obtained data
[24] = target: CXCL5_HUMAN; experiment: BLI
[25] = target: CXCL2_HUMAN; experiment: BLI
[26] = target: CXCL6_HUMAN; experiment: BLI
[27] = target: T19, CXCL8_HUMAN (human, UniProt P10145 28-99); experiment: BLI
[28] = target: T20, CXCL1_HUMAN (human, UniProt P09341 35-107); experiment: BLI
[29] = target: T18, CXCL3_HUMAN; experiment: BLI
[30] = target: CXCL6; experiment: BLI
[31] = target: CXCL5; experiment: BLI
[32] = target: CXCL2; experiment: BLI
[33] = target: T19, CXCL8_HUMAN; experiment: BLI; remark: listed apart in the source
[34] = target: T20, CXCL1_HUMAN; experiment: BLI; remark: listed apart in the source
[35] = target: CXCL6; experiment: BLI; previously obtained data
[36] = target: CXCL5; experiment: BLI; remark: listed apart in the source
[37] = target: CXCL2; experiment: BLI; remark: listed apart in the source

T18 sequence (P19876 35-107): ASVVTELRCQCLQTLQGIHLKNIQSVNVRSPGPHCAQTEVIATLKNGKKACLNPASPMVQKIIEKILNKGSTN
T19 sequence (P10145 28-99): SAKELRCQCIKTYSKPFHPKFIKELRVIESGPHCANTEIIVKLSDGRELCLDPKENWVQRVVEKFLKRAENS
T20 sequence (P09341 35-107): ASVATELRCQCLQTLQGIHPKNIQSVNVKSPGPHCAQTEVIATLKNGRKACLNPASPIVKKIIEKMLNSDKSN
Sequence of CCL11_HUMAN (P51671 24-97): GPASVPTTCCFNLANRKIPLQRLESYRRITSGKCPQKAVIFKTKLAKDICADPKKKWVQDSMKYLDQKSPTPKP
Sequence of CCL20_HUMAN (P78556 27-96): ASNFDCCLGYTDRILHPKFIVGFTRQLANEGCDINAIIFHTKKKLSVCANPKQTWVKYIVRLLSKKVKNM
Sequence of CCL2_HUMAN (P13500 24-99): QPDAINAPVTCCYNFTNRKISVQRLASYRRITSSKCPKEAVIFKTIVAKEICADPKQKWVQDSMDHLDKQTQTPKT
Sequence of CCL7_HUMAN (P80098 24-99): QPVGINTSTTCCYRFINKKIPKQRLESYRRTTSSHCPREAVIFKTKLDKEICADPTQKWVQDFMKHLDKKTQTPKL
Sequence of CCL13_HUMAN (Q99616 24-98): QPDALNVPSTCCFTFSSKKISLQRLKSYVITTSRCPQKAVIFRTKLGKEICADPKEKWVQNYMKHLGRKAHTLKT

B1: P991_AMBCA (other)
chain: ENGEGTTQPDYDNSTDYYNYEDFKCTCPAPHLNNTNGTVMKPIGCYYTCNVTRCTAPDTYPCYNLTEHQAKNLTTSPTTLCAVGNCDHGICVPNGTKELCFKAPNLEE
- Kd [1]: 12 nM
- Kd [2]: 7.37 nM
- Kd [3]: 2.24 nM
- Kd [4]: 3.01 nM
- Kd [5]: 1.9 nM
- Kd [6]: 0.252 nM
- Kd [7]: 5.87 nM
- Kd [8]: 24.7 nM
- Kd [9]: 15.4 nM
- Kd [10]: 8.6 nM
- Kd [11]: 0.711 nM
- Kd [12]: 0.191 nM
- Kd [13]: 5.42 nM
- Kd [14]: 109 nM
- Kd [15]: 0.241 nM
- Kd [16]: 1.34 nM
- Kd [17]: 0.869 nM
- Kd [18]: 15.9 nM
- Kd [19]: 0.536 nM
- Kd [20]: 2.99 nM
- Kd [21]: 26.1 nM
- Kd [22]: 3.68 nM

B2: P1156_IXORI (other)
chain: ADDDNELFTVQYCGMNCTKDEGGTWTGCTGKKEGCKCYHESGKNYGLCLSTEYTDFSQYGNPSDSEIEAAKPKRSDTLSH
- Kd [23]: 70.4 nM
- Kd [24]: 71.9 nM
- Kd [25]: 17 nM
- Kd [26]: 117 nM
- Kd [27]: 2.9 nM
- Kd [28]: 5.8 nM
- Kd [29]: 70.4 nM
- Kd [30]: 62.7 nM
- Kd [31]: 29.8 nM
- Kd [32]: 50.6 nM
- Kd [33]: 4.84 nM
- Kd [34]: 6.53 nM

B3: P1156 (other)
chain: B2 chain
- Kd [35]: 62.7 nM
- Kd [36]: 39.9 nM
- Kd [37]: 30.3 nM
